Data from patent US20240207421A1, “NERVE TARGETING PEPTIDES AND METHODS OF USE” (ALUME BIOSCIENCES, INC., priority 2020, published 2024).
Values belong to the substance of their own block, whether it stands above or below them.

Legend:
[1] = target: Human Myelin Basic Protein (Homo sapiens, UniProt P02686); test: Phage display library screening (Example 1, Power BI analysis), binding to Human Myelin Basic Protein; parameters: Enzo 200-606-M001 from human; purchased Enzo 200-606-M001; host or cells: human brain (tissue-derived); conditions: R3 Myelin Basic Protein, NextGen sequencing count of phage sequences distinct for this target
Description: (§1) Phage display library screens were used to identify peptides that bind to target proteins that are expressed in human nerves and could therefore be useful for systemic in-vivo labeling of nerves during fluorescence assisted surgery. Specifically, m13 phage libraries expressing 7 or 12 random amino acid peptides, or a cyclic peptide CX7C, on the N-terminus of the minor coat protein pIII (New England Biolabs) were processed through multiple rounds of selection for binding to target proteins expressed in peripheral nerve (Table 1).
(§2) The library was processed through up to 4 binding and wash cycles. For selection, phage libraries were incubated for up to 24 hours at 4° C. in 96 well plates that had been coated with one of the target proteins. Plates were then washed with PBS and phage were eluted using 0.2M glycine pH 2.0. Phage supernatants where then neutralized with Tris pH 9.0 prior to plating on TG1 bacteria and LB agar plates. Colonies were counted to determine titer followed by DNA preparation of pools of phage and NextGen sequencing. After rounds of selection, phage were pooled and amplified for iterative selection. Phage that were bound at each round were sequenced. NextGen sequencing of pools after 2, 3 and 4 rounds of selection was used to isolate candidate sequences that were analyzed further to identify those that specifically bound each unique target protein.
(§3) DNA sequences were trimmed of all vector amino acids and imported as a peptide dataset into Power BI. Power BI was used to identify phage display sequences for specific columns (corresponding to each target protein) in order to identify sequences that were distinct for each protein target. The Power BI code evaluated each individual sequence for each protein target against the sequences present in other protein targets in a test for uniqueness. Using the distinct flag, the Power BI code generated a filtered peptide dataset that excluded any peptide sequence that occur in more than one column which identified a specific protein target. This method therefore identified candidate peptide sequences showing selective binding to an individual target protein. Unique sequences in each column were sorted by individual counts such that the most selected sequences appeared at the top of the column.

Human MPZ [2] = target: T1, Human MPZ (Homo sapiens, UniProt P25189); test: Phage display library screening (Example 1, Power BI analysis), binding to Human MPZ; conditions: R3 Human MPZ, NextGen sequencing count of phage sequences distinct for this target
T1 construct: purchased Novoprotein (lysate); Bon Opus Biosciences (recombinant protein) NBL1 1321 (lysate); no catalogue number printed for the Bon Opus protein
T1 sequence (P25189 30-248): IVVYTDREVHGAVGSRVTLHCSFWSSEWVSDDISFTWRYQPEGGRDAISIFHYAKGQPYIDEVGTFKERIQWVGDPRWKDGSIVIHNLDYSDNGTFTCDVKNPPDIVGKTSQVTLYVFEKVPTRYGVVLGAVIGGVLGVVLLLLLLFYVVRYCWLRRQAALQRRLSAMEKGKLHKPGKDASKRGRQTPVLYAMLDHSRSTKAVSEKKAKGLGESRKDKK
Description: as §1, §2, §3

Human MPZ [3] = test: Phage display library screening (Example 2, Python script analysis), binding to Human MPZ; conditions: combined unique sequence count, Python/R script analysis
Description: (§4) Phage display library screens were used to identify peptides that bind to target proteins (including specific laminin trimers) that are expressed in human nerves, as described in Table 3. These screens were also carried out to identify peptides that could bind selectively to nerves versus muscle. Such peptides could therefore be useful for systemic in-vivo labeling of nerves during fluorescence assisted surgery. Specifically, m 13 phage libraries expressing 7 or 12 random amino acid peptides, or a cyclic peptide CX7C, on the N-terminus of the minor coat protein pIII (New England Biolabs; NEB) were processed through multiple rounds of selection for binding to target proteins expressed in nerves, or to excised human nerves, nerve extracts, or muscle, as described further below.
as §2, with “For screening against the specified target proteins in Table 1, including LN211, LN411, LN421, and LN521, the phage” for “The”, “by” for “through”, “TGI” for “TG1”
(§5) Python Script Analysis: For all NEB sequence datasets, a python script was used to translate, trim, and filter the peptide sequences. The script translated the nucleotide sequences, translating amber codons as glutamine in peptide sequences, and then trimmed the end sequences that come from the vector. Secondly, the script combined the unique counts of trimmed peptides with identical sequences. […] Another python script was used to group peptides from different assays according to protein target (Myelin Protein Zero, Myelin Proteolipid Protein, Myelin Basic Protein, and Nidogen-2) and also combine the unique sequence counts for each peptide. An R script was written to merge the peptide sequences from different data files and determine peptides specific for each protein target but absent from different protein binding datasets. Peptide sequences were ranked by unique sequence count.

Human Myelin PLP (human) [4] = target: Human Myelin PLP (human) (UniProt P60201); test: phage display, NGS count
Human Myelin PLP (human) [5] = target: Human Myelin PLP (human) (UniProt P60201); test: phage display R3, NGS count
Human Nidogen-2 = test: Phage display library screening (Example 2, Python script analysis), binding to Human Nidogen-2; conditions: combined unique sequence count, Python/R script analysis
Description: as §4
as §2, with “For screening against the specified target proteins in Table 1, including LN211, LN411, LN421, and LN521, the phage” for “The”, “by” for “through”, “TGI” for “TG1”
as §5

Sequence of Human Myelin PLP (human) (P60201 2-277 limits assumed): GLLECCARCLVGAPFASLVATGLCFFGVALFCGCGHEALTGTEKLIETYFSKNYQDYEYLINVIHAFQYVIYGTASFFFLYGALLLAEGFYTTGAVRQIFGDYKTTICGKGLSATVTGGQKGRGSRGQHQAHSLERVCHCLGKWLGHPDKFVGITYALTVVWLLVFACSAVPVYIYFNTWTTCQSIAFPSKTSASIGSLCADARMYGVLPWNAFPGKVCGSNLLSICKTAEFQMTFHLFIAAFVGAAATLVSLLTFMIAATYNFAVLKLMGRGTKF
Sequence of Human Myelin Basic Protein (P02686 134-304): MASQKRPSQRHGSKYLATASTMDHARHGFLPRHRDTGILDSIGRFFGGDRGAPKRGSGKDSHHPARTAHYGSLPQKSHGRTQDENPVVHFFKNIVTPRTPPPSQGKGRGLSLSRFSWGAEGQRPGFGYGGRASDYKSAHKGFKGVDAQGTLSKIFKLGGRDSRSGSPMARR

Substance: AGFPPNT (R3 Myelin Basic Protein-binding peptide)
Count [1]: 10

Substance: AGQLMRCANC (R3 Myelin Basic Protein-binding peptide)
Count [1]: 12

Substance: AITSRNA (R3 Myelin Basic Protein-binding peptide)
Count [1]: 15

Substance: ALPLSAS (R3 Human MPZ-binding peptide)
Count (Human MPZ [2]): 196
Count (Human MPZ [3]): 197

Count (Human Myelin PLP (human) [4]): 68
Count (Human Myelin PLP (human) [5]): 68
Substance: ATLKPYR (peptide)

Substance: CSFKMNQKC (Nidogen-2-binding peptide)
Count (Human Nidogen-2): 8

Substance: CSSSAPRIC (Nidogen-2-binding peptide)
Count (Human Nidogen-2): 9

Substance: CVDKMASVC (Nidogen-2-binding peptide)
Count (Human Nidogen-2): 6

Substance: CYSAPTKSC (Nidogen-2-binding peptide)
Count (Human Nidogen-2): 6

Substance: DGKNTSN (R3 Myelin Basic Protein-binding peptide)
Count [1]: 10

Substance: DPITRLK (R3 Human MPZ-binding peptide)
Count (Human MPZ [2]): 92
Count (Human MPZ [3]): 93

Substance: DRNSVFW (R3 Human MPZ-binding peptide)
Count (Human MPZ [2]): 50
Count (Human MPZ [3]): 50

Count (Human Myelin PLP (human) [4]): 33
Count (Human Myelin PLP (human) [5]): 33
Substance: DTSRTME (peptide)

Substance: EAMMHRN (Nidogen-2-binding peptide)
Count (Human Nidogen-2): 6

Count (Human Myelin PLP (human) [4]): 33
Count (Human Myelin PLP (human) [5]): 33
Substance: EKPSWTR (peptide)

Substance: ETTRNYG (R3 Human MPZ-binding peptide)
Count (Human MPZ [2]): 68
Count (Human MPZ [3]): 69

Count (Human Myelin PLP (human) [4]): 34
Count (Human Myelin PLP (human) [5]): 34
Substance: FKMPIPT (peptide)

Count (Human Myelin PLP (human) [5]): 42
Substance: FPVVTRN (peptide)

Substance: GDERIVRTLSHN (R3 Human MPZ-binding peptide)
Count (Human MPZ [2]): 47

Count (Human Myelin PLP (human) [4]): 66
Count (Human Myelin PLP (human) [5]): 66
Substance: GLIRHYT (peptide)

Substance: GLRTMEP (Nidogen-2-binding peptide)
Count (Human Nidogen-2): 7

Substance: GLTPKLF (R3 Human MPZ-binding peptide)
Count (Human MPZ [2]): 48

Count (Human Myelin PLP (human) [5]): 47
Substance: GPFLFTV (peptide)

Substance: GPLRMAT (R3 Human MPZ-binding peptide)
Count (Human MPZ [2]): 50
Count (Human MPZ [3]): 51

Substance: HPSTWHK (R3 Myelin Basic Protein-binding peptide)
Count [1]: 18

Count (Human Myelin PLP (human) [4]): 53
Count (Human Myelin PLP (human) [5]): 53
Substance: HQGSRTY (peptide)

Substance: HSRLPTP (Nidogen-2-binding peptide)
Count (Human Nidogen-2): 13

Substance: IKPPYTH (R3 Human MPZ-binding peptide)
Count (Human MPZ [2]): 78
Count (Human MPZ [3]): 82

Substance: ILLPSLN (R3 Myelin Basic Protein-binding peptide)
Count [1]: 13

Substance: KMAGHTV (R3 Human MPZ-binding peptide)
Count (Human MPZ [2]): 51
Count (Human MPZ [3]): 54

Count (Human Myelin PLP (human) [4]): 44
Count (Human Myelin PLP (human) [5]): 44
Substance: LALYARM (peptide)

Substance: LHITPEV (Nidogen-2-binding peptide)
Count (Human Nidogen-2): 6

Count (Human Myelin PLP (human) [4]): 44
Count (Human Myelin PLP (human) [5]): 44
Substance: LRFQIPP (peptide)

Substance: LRPISHE (R3 Myelin Basic Protein-binding peptide)
Count [1]: 12

Substance: LSIRGLT (Nidogen-2-binding peptide)
Count (Human Nidogen-2): 6

Substance: LSSPLSL (R3 Human MPZ-binding peptide)
Count (Human MPZ [2]): 56
Count (Human MPZ [3]): 56

Count (Human Myelin PLP (human) [4]): 40
Count (Human Myelin PLP (human) [5]): 40
Substance: LTHHFAP (peptide)

Substance: LVHPFHG (Nidogen-2-binding peptide)
Count (Human Nidogen-2): 8

Substance: MQTQGRV (R3 Myelin Basic Protein-binding peptide)
Count [1]: 12

Count (Human Myelin PLP (human) [5]): 62
Substance: MTPHTSC (peptide)

Substance: NDTKTPS (R3 Myelin Basic Protein-binding peptide)
Count [1]: 19

Substance: NILSQVN (Nidogen-2-binding peptide)
Count (Human Nidogen-2): 6

Count (Human Myelin PLP (human) [4]): 34
Count (Human Myelin PLP (human) [5]): 34
Substance: NPNWRTI (peptide)

Count (Human Myelin PLP (human) [4]): 37
Count (Human Myelin PLP (human) [5]): 37
Substance: NPSHHPR (peptide)

Substance: QIGVLPS (R3 Myelin Basic Protein-binding peptide)
Count [1]: 11

Substance: QLLESRT (Nidogen-2-binding peptide)
Count (Human Nidogen-2): 6

Substance: QMDAKHM (Nidogen-2-binding peptide)
Count (Human Nidogen-2): 6

Substance: QTLRPKQ (Nidogen-2-binding peptide)
Count (Human Nidogen-2): 6

Count (Human Myelin PLP (human) [4]): 52
Count (Human Myelin PLP (human) [5]): 52
Substance: RFELPAP (peptide)

Count (Human Myelin PLP (human) [4]): 42
Count (Human Myelin PLP (human) [5]): 42
Substance: RHNVEFS (peptide)

Substance: RVPHSRT (R3 Human MPZ-binding peptide)
Count (Human MPZ [2]): 49

Substance: SAHAKHH (R3 Human MPZ-binding peptide)
Count (Human MPZ [2]): 51
Count (Human MPZ [3]): 52

Substance: SHLASRP (R3 Human MPZ-binding peptide)
Count (Human MPZ [2]): 97

Substance: SHSPGNK (R3 Human MPZ-binding peptide)
Count (Human MPZ [2]): 67
Count (Human MPZ [3]): 79

Substance: SKSDAWR (R3 Myelin Basic Protein-binding peptide)
Count [1]: 14

Count (Human Myelin PLP (human) [4]): 34
Count (Human Myelin PLP (human) [5]): 34
Substance: SMWSQFR (peptide)

Substance: SVLRMLN (R3 Myelin Basic Protein-binding peptide)
Count [1]: 16

Substance: TESLFPH (R3 Human MPZ-binding peptide)
Count (Human MPZ [2]): 50
Count (Human MPZ [3]): 52

Substance: TIASLLV (Nidogen-2-binding peptide)
Count (Human Nidogen-2): 6

Substance: TMASPAK (R3 Human MPZ-binding peptide)
Count (Human MPZ [2]): 52
Count (Human MPZ [3]): 58

Count (Human Myelin PLP (human) [4]): 62
Count (Human Myelin PLP (human) [5]): 62
Substance: TNPWKPH (peptide)

Substance: TPWLPTI (Nidogen-2-binding peptide)
Count (Human Nidogen-2): 7

Substance: TSPWELR (R3 Human MPZ-binding peptide)
Count (Human MPZ [2]): 107
Count (Human MPZ [3]): 108

Substance: VLKNNPT (R3 Human MPZ-binding peptide)
Count (Human MPZ [2]): 86
Count (Human MPZ [3]): 87

Substance: VLTKPMP (R3 Human MPZ-binding peptide)
Count (Human MPZ [2]): 56
Count (Human MPZ [3]): 56

Substance: WLAAGSQ (Nidogen-2-binding peptide)
Count (Human Nidogen-2): 6

Substance: WPSISRP (R3 Human MPZ-binding peptide)
Count (Human MPZ [2]): 57
Count (Human MPZ [3]): 58

Substance: YNHTMMY (Nidogen-2-binding peptide)
Count (Human Nidogen-2): 7

Count (Human Myelin PLP (human) [4]): 35
Count (Human Myelin PLP (human) [5]): 35
Substance: YPKLWTY (peptide)

Count (Human Myelin PLP (human) [4]): 50
Count (Human Myelin PLP (human) [5]): 50
Substance: YTPMGTG (peptide)
